Columns and labels:
MORC2 subset N = molecular target: T1, MORC2 subset N (Homo sapiens, UniProt Q9Y6X9 1-1032, K704D;R707D;K713D;K716D;K721D;K722D); assay: fluorescence anisotropy; apo; FA/EMSA: 50 mM NaCl, 3 mM MgCl2, 20 mM Na-HEPES pH 7.4, 1 mM TCEP, 10% glycerol, 0.025 mM ZnCl2, 50 ug/ml BSA, room temperature; 1 nM nucleic acid (FA) or 20 nM DNA (EMSA); settings: protein: recombinant; tags: tag removed by TEV; chain copies: 2; label: 5'-6-FAM; blunt
T1 sequence: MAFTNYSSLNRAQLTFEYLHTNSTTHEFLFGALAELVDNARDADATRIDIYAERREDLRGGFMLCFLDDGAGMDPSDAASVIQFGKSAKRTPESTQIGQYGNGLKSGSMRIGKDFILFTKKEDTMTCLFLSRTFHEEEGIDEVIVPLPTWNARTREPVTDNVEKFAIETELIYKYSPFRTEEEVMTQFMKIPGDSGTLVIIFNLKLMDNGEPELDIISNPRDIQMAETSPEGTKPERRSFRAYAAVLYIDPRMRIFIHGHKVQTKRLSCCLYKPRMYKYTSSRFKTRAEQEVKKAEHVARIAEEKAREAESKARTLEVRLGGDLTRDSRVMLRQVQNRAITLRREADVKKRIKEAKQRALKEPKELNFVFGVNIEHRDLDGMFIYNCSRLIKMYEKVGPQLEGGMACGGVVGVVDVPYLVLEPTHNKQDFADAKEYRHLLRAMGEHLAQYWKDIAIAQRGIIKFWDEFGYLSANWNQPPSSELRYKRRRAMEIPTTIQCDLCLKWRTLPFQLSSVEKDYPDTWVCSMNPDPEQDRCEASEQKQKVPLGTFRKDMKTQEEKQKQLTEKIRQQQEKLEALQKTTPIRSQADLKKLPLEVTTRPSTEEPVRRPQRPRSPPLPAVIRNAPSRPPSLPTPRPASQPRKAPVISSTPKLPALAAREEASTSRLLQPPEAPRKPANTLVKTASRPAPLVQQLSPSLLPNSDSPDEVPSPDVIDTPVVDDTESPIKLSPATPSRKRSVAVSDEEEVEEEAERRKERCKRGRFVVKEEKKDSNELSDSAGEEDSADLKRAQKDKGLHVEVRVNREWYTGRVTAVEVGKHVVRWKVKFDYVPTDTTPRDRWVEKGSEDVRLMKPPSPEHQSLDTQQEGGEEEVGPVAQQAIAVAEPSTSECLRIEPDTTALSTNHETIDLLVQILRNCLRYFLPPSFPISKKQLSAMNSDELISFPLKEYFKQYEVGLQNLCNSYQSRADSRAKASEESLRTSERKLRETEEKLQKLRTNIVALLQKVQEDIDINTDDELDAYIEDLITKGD

MORC2 1-603 = molecular target: T2, MORC2 1-603 (Homo sapiens, UniProt Q9Y6X9 1-603); assay: as above; settings: protein: recombinant; tags: tag removed by TEV; label: 5'-6-FAM; blunt
T2 sequence: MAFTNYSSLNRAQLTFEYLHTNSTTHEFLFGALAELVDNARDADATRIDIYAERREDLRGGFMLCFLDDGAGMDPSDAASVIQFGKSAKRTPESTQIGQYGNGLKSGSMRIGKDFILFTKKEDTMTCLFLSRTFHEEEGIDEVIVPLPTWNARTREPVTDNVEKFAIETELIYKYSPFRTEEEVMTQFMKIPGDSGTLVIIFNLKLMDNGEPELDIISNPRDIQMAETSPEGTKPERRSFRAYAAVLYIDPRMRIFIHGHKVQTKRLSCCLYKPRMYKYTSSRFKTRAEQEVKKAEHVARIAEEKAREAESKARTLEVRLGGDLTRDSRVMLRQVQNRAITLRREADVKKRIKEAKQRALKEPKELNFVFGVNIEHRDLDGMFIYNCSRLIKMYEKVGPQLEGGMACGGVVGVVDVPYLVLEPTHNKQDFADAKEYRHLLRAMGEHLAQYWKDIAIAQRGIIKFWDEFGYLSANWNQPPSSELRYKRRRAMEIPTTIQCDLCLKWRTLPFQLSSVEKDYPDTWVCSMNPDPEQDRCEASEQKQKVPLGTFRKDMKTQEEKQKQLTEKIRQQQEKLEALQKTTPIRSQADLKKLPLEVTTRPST

B1: Random 35mer dsDNA (dsDNA)
DNA 1: ATAGGGTCCATCAGAATTCGGATGAACTCGGTGTG
DNA 2: CACACCGAGTTCATCCGAATTCTGATGGACCCTAT
In the case of B1, the Kd (MORC2 subset N) is reported as 90 ± 20 nM and the Kd (MORC2 1-603) is reported as 446 ± 119 nM.

Reference: paper PMC11879086, “Identification and characterization of a human MORC2 DNA binding region that is required for gene silencing” (Nucleic Acids Research, 2024)
